Test [1] concerns the target T1, cynomolgus monkey FOLR1-Fc (cynomolgus monkey; human).
T1 construct: Expressed in CHO/Ms704 cells; also called CyFOLR1-Fc; not shown: Human IgG1 Fc (Hinge region and CH2-CH3 region) from pKANTEX93, added to the C-terminus
Nature of the test: ELISA, antigen coated at 2 ug/mL, antibody 1.4-1000 ng/mL, goat anti-human kappa-HRP, ABTS, absorbance at 415 nm [c]. The method, then:
(§1) First, each 50 μL/well of FOLR1-Fc, FOLR2-Fc, FOLR3-Fc, and cynomolgus monkey FOLR1-Fc which were prepared at a concentration of 2 μg/mL using PBS was added in a 96-well plate for ELISA and incubated at 4° C. overnight. It was washed with PBS, and then 200 μL/well of 1% BSA/PBS wad added at room temperature for 1 hour for blocking. It was washed with PBS again, and each 50 μL/well of HuRA15-7CTDF antibody, ChRA15-7DF antibody, MORAb-003DF antibody, and defucosylated anti-DNP human IgG1 (DNPDF) antibody as a negative control which were prepared by seven-step dilution (1.4, 4.1, 12, 37, 111, 333, 1000 ng/mL) in 1% BSA/PBS was added, and allowed to react at room temperature for 1 hour.
(§2) Each well was washed with 0.05% tween20/PBS, and then 50 μL/well of Goat anti-Human kappa-HRP (Southern Biotech) which was diluted 2000-fold using 1% BSA/PBS was added and allowed to react at room temperature for 1 hour. Each well was washed with PBS, and then 50 μL/well of ABTS substrate solution was added, and allowed to react at room temperature. After sufficient color development was confirmed, 5% SDS solution was added to terminate the reaction, and absorbance at 415 nm was measured.
(In general: ELISA stands for enzyme-linked immunosorbent assay.)

The target of test [2] is T2, FOLR1-mycHis (human, UniProt P15328 25-233).
T2 construct: Secreted from CHO/DG44 cells, purified on Ni-NTA; Residues 1-233 include the native signal peptide; also called non-reducing FOLR1-mycHis; recombinant protein having myc and His tag at the C-terminus of FOLR1 (1-233 amino acids); not shown: myc and His tag at the C-terminus
T2 sequence (P15328 25-233): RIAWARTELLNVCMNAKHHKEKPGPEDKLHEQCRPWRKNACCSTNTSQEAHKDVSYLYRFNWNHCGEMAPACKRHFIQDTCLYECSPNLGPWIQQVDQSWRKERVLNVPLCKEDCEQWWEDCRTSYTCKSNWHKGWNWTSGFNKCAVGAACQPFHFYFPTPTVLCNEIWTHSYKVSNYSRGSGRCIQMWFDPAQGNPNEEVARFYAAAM
Nature of the test: SPR (Biacore), antibody captured by Human Antibody Capture Kit on a CM5 chip, FOLR1-mycHis as analyte (12.3-1000 ng/mL, as in Example 29); affinity relative to ChRA15-7Acc = 100. The method, then: (§3) The affinities of ChRA15-7Acc antibody and MORAb-003 antibody for FOLR1 were measured by a surface plasmon resonance method. The measurement was carried out in the same manner as in Example 16, except that a Human Antibody Capture Kit (GE Healthcare) was immobilized onto the CM5 chip by amine coupling and FOLR1-mycHis prepared by five-step dilution (12.3, 37, 111, 333, 1000 ng/mL) was applied as an analyte.
(§4) Affinities of HV7LV3-CDRH3-Cys101 modified antibodies for FOLR1 were measured by the surface plasmon resonance method in the same manner as in Example 29.
(In general: Surface plasmon resonance follows binding to a sensor surface in real time, without labels.)

The target of test [3] is T1, cynomolgus monkey FOLR1-Fc. Nature of the test: ELISA, antigen coated at 2 ug/mL, antibody 1.4-1000 ng/mL, goat anti-human kappa-HRP, ABTS, absorbance at 415 nm [d]. As for the experimental part: as §1, §2
Test [4] addresses T2, FOLR1-mycHis. Nature of the test: SPR as in Example 29, antibody captured, FOLR1-mycHis as analyte. As for the experimental part:
as §3, §4

For test [5], the target named is T2, FOLR1-mycHis. Put plainly: surface plasmon resonance as in Example 29. The method, then: as §3, §4
Test [6] has as its target T2, FOLR1-mycHis. Nature of the test: SPR (Biacore T100), antibody captured with Human Antibody Capture Kit, FOLR1-mycHis as analyte, 1:1 binding model. As for the experimental part: The affinity was analyzed from association constant (Ka) and dissociation constant (Kd) by Single-cycle kinetics. Kinetic constants (ka, kd, KD) were calculated by 1:1 binding model using a Biacore T-100 Evaluation software (GE Healthcare).
as §3

The results in this text go back to US20160060340A1 (Kyowa Kirin, published 2016).

Residue numbers refer to the chain shown, from its start. Names may count otherwise.

For orientation: Kd means the constant that tells how readily two partners part at equilibrium. The term koff denotes the rate constant with which the complex falls apart.

T1 sequence (chain, as listed by the source): as the sequence (P15328 25-233) above, with I2T, W4R, R37K, A146P, H171Y counted along it

B1: ChRA15-7DF antibody (antibody, human IgG1, V domains shown)
VH: EVKLLESGGGLVQPGGSMRLSCAASGFTFTDFYMNWIRQPAGKAPEWLGFIRNKANGYTTEFNPSVKGRFAISRDNTQNMLYLQMNTLRAEDTATYYCARCLYGYAYYYVMDAWGQGTSVTVSS
VL: DIQMTQSPASLSASLGETVTIECRTSEDIFRNLAWYQQRPGNSPQLLIYDTNRLADGVPSRFSGSGSGTQYSLKINSLQSEDVAGYFCQQYDNYPLTFGSGTKLEIK
notes: sugar chain without fucose, made in CHO/Ms704 cells; also called defucosylated rat/human chimeric RA15-7
Consider B1, for which the binding result in test [1] was “binds”.

B2: C101A (antibody, V domains shown)
VH: EVQLVESGGGLVQPGGSLRLSCAASGFTFTDFYMNWVRQPPGKAPEWLGFIRNKANGYTTEFNPSVKGRFTISRDNSKNSLYLQMNSLKTEDTATYYCARALYGYAYYYVMDAWGQGTLVTVSS
VL: DIQMTQSPSSLSASLGDRVTITCRTSEDIFRNLAWYQQKPGKAPKLLIYDTNRLADGVPSRFSGSGSGTDYTLTISSLQPEDFATYFCQQYDNYPLTFGQGTKLEIK
notes: also called HV7LV3-CDRH3-Cys101 modified antibody C101A; antibody in which Cys101 was modified with Ala
In the case of B2, the binding result with FOLR1-mycHis [2] was “binds”.

B3: HuRA15-7CTDF antibody (antibody, human IgG1, V domains shown)
VH: B2 VH with A101T
VL: B2 VL
notes: defucosylated, made in CHO/Ms704 cells; also called defucosylated HuRA15-7CT
As for B3, in test [3], the binding result is reported as “binds”.

B4: modified humanized RA15-7 antibody HV10LV3 (antibody, human IgG1, V domains shown)
VH: B2 VH with L18M, V37I, P41A, A101C
VL: B2 VL
notes: Human IgG1 kappa constant regions of pKANTEX93; transiently made in FUT8 double-knockout CHO-K1 cells
In the case of B4, the “affinity as percent of the affinity of ChRA15-7Acc” value with FOLR1-mycHis [4] was about 70%.

B5: HV7LV3-CDRH3-Cys101 modified antibody C101M (antibody, human IgG1, V domains shown)
VH: B2 VH with A101M
VL: B2 VL
notes: Human IgG1 kappa constant regions of pKANTEX93; transiently made in FUT8 double-knockout CHO-K1 cells; also called antibody in which Cys101 was modified with Met
On to B5, for which the “affinity as percent of the affinity of ChRA15-7Acc antibody” value with FOLR1-mycHis [5] was ≥ 50 % of the affinity of ChRA15-7Acc antibody; with FOLR1-mycHis [4] it was 59%.

B6: modified humanized RA15-7 antibody HV10LV6 (antibody, human IgG1, V domains shown)
VH: B2 VH with L18M, V37I, P41A, A101C
VL: B2 VL with A43S, K45Q, T85G
notes: as for B4
For B6, the “affinity as percent of the affinity of ChRA15-7Acc” value with FOLR1-mycHis [4] was about 70%.

B7: HV7LV3-CDRH3-Cys101 modified antibody C101F (antibody, human IgG1, V domains shown)
VH: B2 VH with A101F
VL: B2 VL
notes: Human IgG1 kappa constant regions of pKANTEX93; transiently made in FUT8 double-knockout CHO-K1 cells; also called antibody in which Cys101 was modified with Phe
As for B7, the “affinity as percent of the affinity of ChRA15-7Acc antibody” value with FOLR1-mycHis [5] was ≥ 50 % of the affinity of ChRA15-7Acc antibody; with FOLR1-mycHis [4], 80%.

B8: modified humanized RA15-7 antibody HV10LV2 (antibody, human IgG1, V domains shown)
VH: B2 VH with L18M, V37I, P41A, A101C
VL: B2 VL with L15V, K45Q, F87Y
notes: as for B4
In the case of B8, the “affinity as percent of the affinity of ChRA15-7Acc” value with FOLR1-mycHis [4] was about 70%.

B9: C101P (antibody, V domains shown)
VH: B2 VH with A101P
VL: B2 VL
notes: also called HV7LV3-CDRH3-Cys101 modified antibody C101P; antibody in which Cys101 was modified with Pro
B9: the binding result with FOLR1-mycHis [2] is given as “no binding”.

B10: modified humanized RA15-7 antibody HV10LV4 (antibody, human IgG1, V domains shown)
VH: B2 VH with L18M, V37I, P41A, A101C
VL: B2 VL with K45Q
notes: as for B4
In the case of B10, the “affinity as percent of the affinity of ChRA15-7Acc” value in the test with FOLR1-mycHis [4] was about 70%.

B11: HV7LV3-CDRH3-Cys101 modified antibody C101Q (antibody, human IgG1, V domains shown)
VH: B2 VH with A101Q
VL: B2 VL
notes: Human IgG1 kappa constant regions of pKANTEX93; transiently made in FUT8 double-knockout CHO-K1 cells; also called antibody in which Cys101 was modified with Gln
Regarding B11, the “affinity as percent of the affinity of ChRA15-7Acc antibody” value in the test with FOLR1-mycHis [5] was ≥ 50 % of the affinity of ChRA15-7Acc antibody; with FOLR1-mycHis [4], 64%.

B12: HV7LV3-CDRH3-Cys101 modified antibody C101I (antibody, human IgG1, V domains shown)
VH: B2 VH with A101I
VL: B2 VL
notes: Human IgG1 kappa constant regions of pKANTEX93; transiently made in FUT8 double-knockout CHO-K1 cells; also called antibody in which Cys101 was modified with Ile
With B12, the “affinity as percent of the affinity of ChRA15-7Acc antibody” value in the test with FOLR1-mycHis [5] was ≥ 50 % of the affinity of ChRA15-7Acc antibody; in the test with FOLR1-mycHis [4] it was 73%.

B13: HV7LV3-CDRH3-Cys101 modified antibody C101T (HuRA15-7CT) (antibody, human IgG1, V domains shown)
VH: B2 VH with A101T
VL: B2 VL
modifications: Expressed in FUT8-knockout CHO-K1 cells (Fc glycan without core fucose); not carried by the letters.
notes: Human IgG1 kappa constant regions of pKANTEX93; transiently made in FUT8 double-knockout CHO-K1 cells; Same vector as HuRA15-7CTDF; also called antibody in which Cys101 was modified with Thr
Turning to B13, the “affinity as percent of the affinity of ChRA15-7Acc antibody” value was ≥ 50 % of the affinity of ChRA15-7Acc antibody with FOLR1-mycHis [5] and 88% with FOLR1-mycHis [4].

B14: HV7LV3-CDRH3-Cys101 modified antibody C101V (antibody, human IgG1, V domains shown)
VH: B2 VH with A101V
VL: B2 VL
notes: Human IgG1 kappa constant regions of pKANTEX93; transiently made in FUT8 double-knockout CHO-K1 cells; also called antibody in which Cys101 was modified with Val
Consider B14, for which the figures for the “affinity as percent of the affinity of ChRA15-7Acc antibody” value with FOLR1-mycHis [5] and with FOLR1-mycHis [4] were ≥ 50 % of the affinity of ChRA15-7Acc antibody and 55%, respectively.

B15: C101G (antibody, V domains shown)
VH: B2 VH with A101G
VL: B2 VL
notes: also called HV7LV3-CDRH3-Cys101 modified antibody C101G; antibody in which Cys101 was modified with Gly
For B15, the binding result with FOLR1-mycHis [2] was “binds”.

B16: MORAb-003 antibody (antibody, V domains shown)
VH: EVQLVESGGGVVQPGRSLRLSCSASGFTFSGYGLSWVRQAPGKGLEWVAMISSGGSYTYYADSVKGRFAISRDNAKNTLFLQMDSLRPEDTGVYFCARHGDDPAWFAYWGQGTPVTVSS
VL: DIQLTQSPSSLSASVGDRVTITCSVSSSISSNNLHWYQQKPGKAPKPWIYGTSNLASGVPSRFSGSGSGTDYTFTISSLQPEDIATYYCQQWSSYPYMYTFGQGTKVEIKR
With B16, in the test with FOLR1-mycHis [6], the equilibrium dissociation constant (Kd) is 57 nM and the koff worked out at 0.0259 s⁻¹.
